Laboratory results reported in the supplement of paper PMC5998384.

Columns and labels:
HeLa Kyoto [1] = assay: solubility in G1/S (NP-40 vs SDS abundance) (log2 ratio); higher = more soluble; settings: cell cycle stage: G1/S
HeLa Kyoto [2] = assay: melting temperature (median over replicates), in situ; higher = more thermally stable
HeLa Kyoto [3] = assay: solubility change mitosis vs G1/S (difference of NP-40 vs SDS log2 ratios) (log2 ratio difference); higher = more soluble in mitosis
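Throughout, for melting temperature (median over replicates), in situ: HeLa Kyoto cells synchronized by double thymidine or nocodazole block, proteins quantified by TMT10plex mass spectrometry, three independent biological replicates.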
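Throughout, for solubility change mitosis vs G1/S (difference of NP-40 vs SDS log2 ratios): synchronized HeLa Kyoto cells (double thymidine block for G1/S, nocodazole release for mitosis), protein amounts in NP-40 versus SDS lysates quantified by mass spectrometry, three biological replicates.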
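Throughout, for solubility in G1/S (NP-40 vs SDS abundance): HeLa Kyoto cells arrested at G1/S by double thymidine block, proteins quantified by TMT10plex mass spectrometry in mild NP-40 versus SDS extracts, three biological replicates.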

Row | Sequence | solubility in G1/S (log2) (HeLa Kyoto [1]) | melting temperature (HeLa Kyoto [2]; cell cycle stage: G1/S) | melting temperature (HeLa Kyoto [2]; cell cycle stage: mitosis) | solubility change mitosis (log2) (HeLa Kyoto [3])
1 | MAQRLLLRRFLASVISRKPSQGQWPPLTSRALQTPQCSPGGLTVTPNPARTIYTTRISLTTFNIQDGPDFQDRVVNSETPVVVDFHAQWCGPCKILGPRLEKMVAKQHGKVVMAKVDIDDHTDLAIEYEVSAVPTVLAMKNGDVVDKFVGIKDEDQLEAFLKKLIG [TXN2] | 0.576 | 53.5 °C | 52.9 °C | 0.017
2 | MPVTVTRTTITTTTTSSSGLGSPMIVGSPRALTQPLGLLRLLQLVSTCVAFSLVASVGAWTGSMGNWSMFTWCFCFSVTLIILIVELCGLQARFPLSWRNFPITFACYAALFCLSASIIYPTTYVQFLSHGRSRDHAIAATFFSCIACVAYATEVAWTRARPGEITGYMATVPGLLKVLETFVACIIFAFISDPNLYQHQPALEWCVAVYAICFILAAIAILLNLGECTNVLPIPFPSFLSGLALLSVLLYATALVLWPLYQFDEKYGGQPRRSRDVSCSRSHAYYVCAWDRRLAVAILTAINLLAYVADLVHSAHLVFVKV [MYADM] | -0.352 | 52.9 °C | 53 °C | -0.0179
3 | MEGGGGIPLETLKEESQSRHVLPASFEVNSLQKSNWGFLLTGLVGGTLVAVYAVATPFVTPALRKVCLPFVPATTKQIENVVKMLRCRRGSLVDIGSGDGRIVIAAAKKGFTAVGYELNPWLVWYSRYRAWREGVHGSAKFYISDLWKVTFSQYSNVVIFGVPQMMLQLEKKLERELEDDARVIACRFPFPHWTPDHVTGEGIDTVWAYDASTFRGREKRPCTSMHFQLPIQA [FAM173B] | -0.208 | 54.7 °C | – | -0.0503
4 | MGFLRRLIYRRRPMIYVESSEESSDEQPDEVESPTQSQDSTPAEEREDEGASAAQGQEPEADSQELVQPKTGCELGDGPDTKRVCLRNEEQMKLPAEGPEPEADSQEQVHPKTGCERGDGPDVQELGLPNPEEVKTPEEDEGQSQP [PAGE1] | -0.617 | 53.3 °C | 51.6 °C | 0.603
5 | MAMVVSTWRDPQDEVPGSQGSQASQAPPVPGPPPGAPHTPQTPGQGGPASTPAQTAAGGQGGPGGPGSDKQQQQQHIECVVCGDKSSGKHYGQFTCEGCKSFFKRSVRRNLSYTCRANRNCPIDQHHRNQCQYCRLKKCLKVGMRREAVQRGRMPPTQPTHGQFALTNGDPLNCHSYLSGYISLLLRAEPYPTSRFGSQCMQPNNIMGIENICELAARMLFSAVEWARNIPFFPDLQITDQVALLRLTWSELFVLNAAQCSMPLHVAPLLAAAGLHASPMSADRVVAFMDHIRIFQEQVEKLKALHVDSAEYSCLKAIVLFTSDACGLSDVAHVESLQEKSQCALEEYVRSQYPNQPTRFGKLLLRLPSLRTVSSSVIEQLFFVRLVGKTPIETLIRDMLLSGSSFNWPYMAIQ [NR2F2] | -0.00984 | – | 50.3 °C | -0.152
6 | MASQGRRRRPLRRPETVVPGEATETDSERSASSSEEEELYLGPSGPTRGRPTGLRVAGEAAETDSEPEPEPEPTAAPRDLPPLVVQRESAEEAWGTEEAPAPAPARSLLQLRLAESQARLDHDVAAAVSGVYRRAGRDVAALASRLAAAQAAGLAAAHSVRLARGDLCALAERLDIVAGCRLLPDIRGVPGTEPEKDPGPRA [BLOC1S3] | 0.568 | 52.6 °C | 54.9 °C | 0.0331
7 | MELERIVSAALLAFVQTHLPEADLSGLDEVIFSYVLGVLEDLGPSGPSEENFDMEAFTEMMEAYVPGFAHIPRGTIGDMMQKLSGQLSDARNKENLQPQSSGVQGQVPISPEPLQRPEMLKEETRSSAAAAADTQDEATGAEEELLPGVDVLLEVFPTCSVEQAQWVLAKARGDLEEAVQMLVEGKEEGPAAWEGPNQDLPRRLRGPQKDELKSFILQKYMMVDSAEDQKIHRPMAPKEAPKKLIRYIDNQVVSTKGERFKDVRNPEAEEMKATYINLKPARKYRFH [CUEDC2] | 0.417 | 46.8 °C | 51.7 °C | 0.134
8 | MSTFRQEDVEDHYEMGEELGSGQFAIVRKCRQKGTGKEYAAKFIKKRRLSSSRRGVSREEIEREVNILREIRHPNIITLHDIFENKTDVVLILELVSGGELFDFLAEKESLTEDEATQFLKQILDGVHYLHSKRIAHFDLKPENIMLLDKNVPNPRIKLIDFGIAHKIEAGNEFKNIFGTPEFVAPEIVNYEPLGLEADMWSIGVITYILLSGASPFLGETKQETLTNISAVNYDFDEEYFSNTSELAKDFIRRLLVKDPKRRMTIAQSLEHSWIKAIRRRNVRGEDSGRKPERRRLKTTRLKEYTIKSHSSLPPNNSYADFERFSKVLEEAAAAEEGLRELQRSRRLCHEDVEALAAIYEEKEAWYREESDSLGQDLRRLRQELLKTEALKRQAQEEAKGALLGTSGLKRRFSRLENRYEALAKQVASEMRFVQDLVRALEQEKLQGVECGLR [DAPK3] | -0.721 | – | – | -0.0326
9 | MPGRAEAGEAEEEAGAGSGSEAEEDALWERIEGVRHRLARALNPAKLTPYLRQCRVIDEQDEEEVLSTYRFPCRVNRTGRLMDILRCRGKRGYEAFLEALEFYYPEHFTLLTGQEPAQRCSMILDEEGPEGLTQFLMTEVRRLREARKSQLQREQQLQARGRVLEEERAGLEQRLRDQQQAQERCQRLREDWEAGSLELLRLKDENYMIAMRLAQLSEEKNSAVLRSRDLQLAVDQLKLKVSRLEEECALLRRARGPPPGAEEKEKEKEKEKEPDNVDLVSELRAENQRLTASLRELQEGLQQEASRPGAPGSERILLDILEHDWREAQDSRQELCQKLHAVQGELQWAEELRDQYLQEMEDLRLKHRTLQKDCDLYKHRMATVLAQLEEIEKERDQAIQSRDRIQLQYSQSLIEKDQYRKQVRGLEAERDELLTTLTSLEGTKALLEVQLQRAQGGTCLKACASSHSLCSNLSSTWSLSEFPSPLGGPEATGEAAVMGGPEPHNSEEATDSEKEINRLSILPFPPSAGSILRRQREEDPAPPKRSFSSMSDITGSVTLKPWSPGLSSSSSSDSVWPLGKPEGLLARGCGLDFLNRSLAIRVSGRSPPGGPEPQDKGPDGLSFYGDRWSGAVVRRVLSGPGSARMEPREQRVEAAGLEGACLEAEAQQRTLLWNQGSTLPSLMDSKACQSFHEALEAWAKGPGAEPFYIRANLTLPERADPHALCVKAQEILRLVDSAYKRRQEWFCTRVDPLTLRDLDRGTVPNYQRAQQLLEVQEKCLPSSRHRGPRSNLKKRALDQLRLVRPKPVGAPAGDSPDQLLLEPCAEPERSLRPYSLVRPLLVSALRPVVLLPECLAPRLIRNLLDLPSSRLDFQVCPAESLSGEELCPSSAPGAPKAQPATPGLGSRIRAIQESVGKKHCLLELGARGVRELVQNEIYPIVIHVEVTEKNVREVRGLLGRPGWRDSELLRQCRGSEQVLWGLPCSWVQVPAHEWGHAEELAKVVRGRILQEQARLVWVECGSSRGCPSSSEA [CARD10] | -0.0585 | – | – | 0.0575
10 | MLQSLAGSSCVRLVERHRSAWCFGFLVLGYLLYLVFGAVVFSSVELPYEDLLRQELRKLKRRFLEEHECLSEQQLEQFLGRVLEASNYGVSVLSNASGNWNWDFTSALFFASTVLSTTGYGHTVPLSDGGKAFCIIYSVIGIPFTLLFLTAVVQRITVHVTRRPVLYFHIRWGFSKQVVAIVHAVLLGFVTVSCFFFIPAAVFSVLEDDWNFLESFYFCFISLSTIGLGDYVPGEGYNQKFRELYKIGITCYLLLGLIAMLVVLETFCELHELKKFRKMFYVKKDKDEDQVHIIEHDQLSFSSITDQAAGMKEDQKQNEPFVATQSSACVDGPANH [KCNK1] | -0.169 | – | – | -0.0475
11 | MAAANPWDPASAPNGAGLVLGHFIASGMVNQEMLNMSKKTVSCFVNFTRLQQITNIQAEIYQKNLEIELLKLEKDTADVVHPFFLAQKCHTLQSMNNHLEAVLKEKRSLRQRLLKPMCQENLPIEAVYHRYMVHLLELAVTFIERLETHLETIRNIPHLAANLKKMNQALAKMDILVTETEELAENILKWRKQQNEVSSCIPKILAEESYLYKHDIIMPPLPFTSKVHVQTINAK [HAUS2] | 0.261 | – | – | -0.117
12 | MAPGEVTITVRLIRSFEHRNFKPVVYHGVNLDQTVKEFIVFLKQDIPLRTNLPPPFRNYKYDALKIIHQAHKSKTNELVLSLEDDERLLLKEDSTLKAAGIASETEIAFFCEEDYKNYKANPISSW [C2ORF76] | -0.239 | – | – | 0.0795
